In patent US11653679B2, “High-purity steviol glycosides” (PureCircle Sdn Bhd, priority 2014, dated 2023):
Where a chain is given by its changes, count along the chain named.

B1: UGT76G1var7: UGT76G1 variant, mutations F22L_I43V_A239V (protein, UniProt Q6VAB4 1-458, looked up, variant F22L I43V A239V)
UDP-glycosyltransferase 76G1: MENKTETTVRRRRRIILFPVPLQGHINPILQLANVLYSKGFSVTIFHTNFNKPKTSNYPHFTFRFILDNDPQDERISNLPTHGPLAGMRIPIINEHGADELRRELELLMLASEEDEEVSCLITDALWYFAQSVADSLNLRRLVLMTSSLFNFHAHVSLPQFDELGYLDPDDKTRLEEQASGFPMLKVKDIKSAYSNWQILKEILGKMIKQTKASSGVIWNSFKELEESELETVIREIPVPSFLIPLPKHLTASSSSLLDHDRTVFQWLDQQPPSSVLYVSFGSTSEVDEKDFLEIARGLVDSKQSFLWVVRPGFVKGSTWVEPLPDGFLGERGRIVKWVPQQEVLAHGAIGAFWTHSGWNSTLESVCEGVPMIFSDFGLDQPLNARYMSDVLKVGVYLENGWERGEIANAIRRVMVDEEGEYIRQNARVLKQKADVSLMKGGSSYESLESLVSYISSL
B2: UGT76G1var29: UGT76G1 variant, mutations F22Y_V279I_N409R (protein, UniProt Q6VAB4 1-458, looked up, variant F22Y V279I N409R)
UDP-glycosyltransferase 76G1: B1 UDP-glycosyltransferase 76G1 with L22Y, V43I, V239A, V279I, N409R
B3: UGT76G1var21: UGT76G1 variant, mutations A239V_V300A_K303G (protein, UniProt Q6VAB4 1-458, looked up, variant A239V V300A K303G)
UDP-glycosyltransferase 76G1: B1 UDP-glycosyltransferase 76G1 with L22F, V43I, V300A, K303G
B4: UGT76G1var28: UGT76G1 variant, mutations L243A_S274G_P382M (protein, UniProt Q6VAB4 1-458, looked up, variant L243A S274G P382M)
UDP-glycosyltransferase 76G1: B1 UDP-glycosyltransferase 76G1 with L22F, V43I, V239A, L243A, S274G, P382M
B5: UGT76G1var18: UGT76G1 variant, mutations L243P_S274G_N409R (protein, UniProt Q6VAB4 1-458, looked up, variant L243P S274G N409R)
UDP-glycosyltransferase 76G1: B1 UDP-glycosyltransferase 76G1 with L22F, V43I, V239A, L243P, S274G, N409R
B6: UGT76G1var22: UGT76G1 variant, mutations E231A_V310I_R334K (protein, UniProt Q6VAB4 1-458, looked up, variant E231A V310I R334K)
UDP-glycosyltransferase 76G1: B1 UDP-glycosyltransferase 76G1 with L22F, V43I, E231A, V239A, V310I, R334K
B7: UGT76G1var8: UGT76G1 variant, mutations E224A_Q266S_Q342E (protein, UniProt Q6VAB4 1-458, looked up, variant E224A Q266S Q342E)
UDP-glycosyltransferase 76G1: B1 UDP-glycosyltransferase 76G1 with L22F, V43I, E224A, V239A, Q266S, Q342E
B8: UGT76G1var32: UGT76G1 variant, mutations A239V_L243A_S375M (protein, UniProt Q6VAB4 1-458, looked up, variant A239V L243A S375M)
UDP-glycosyltransferase 76G1: B1 UDP-glycosyltransferase 76G1 with L22F, V43I, L243A, S375M
B9: UGT76G1var31: UGT76G1 variant, mutations E224D_L243P_V300A (protein, UniProt Q6VAB4 1-458, looked up, variant E224D L243P V300A)
UDP-glycosyltransferase 76G1: B1 UDP-glycosyltransferase 76G1 with L22F, V43I, E224D, V239A, L243P, V300A
B10: UGT76G1var20: UGT76G1 variant, mutations S375M_K393G_Y397E (protein, UniProt Q6VAB4 1-458, looked up, variant S375M K393G Y397E)
UDP-glycosyltransferase 76G1: B1 UDP-glycosyltransferase 76G1 with L22F, V43I, V239A, S375M, K393G, Y397E
B11: UGT76G1var17: UGT76G1 variant, mutations F265L_Q266E_Q342K (protein, UniProt Q6VAB4 1-458, looked up, variant F265L Q266E Q342K)
UDP-glycosyltransferase 76G1: B1 UDP-glycosyltransferase 76G1 with L22F, V43I, V239A, F265L, Q266E, Q342K
B12: UGT76G1var15: UGT76G1 variant, mutations F41L_L246F_Q425E (protein, UniProt Q6VAB4 1-458, looked up, variant F41L L246F Q425E)
UDP-glycosyltransferase 76G1: B1 UDP-glycosyltransferase 76G1 with L22F, F41L, V43I, V239A, L246F, Q425E
B13: UGT76G1var24: UGT76G1 variant, mutations A239I_P272A_Q425E (protein, UniProt Q6VAB4 1-458, looked up, variant A239I P272A Q425E)
UDP-glycosyltransferase 76G1: B1 UDP-glycosyltransferase 76G1 with L22F, V43I, V239I, P272A, Q425E
B14: UGT76G1var34: UGT76G1 variant, mutations I43V_T284I_I295T (protein, UniProt Q6VAB4 1-458, looked up, variant I43V T284I I295T)
UDP-glycosyltransferase 76G1: B1 UDP-glycosyltransferase 76G1 with L22F, V239A, T284I, I295T
B15: UGT76G1var26: UGT76G1 variant, mutations S241I_F265L_F377C (protein, UniProt Q6VAB4 1-458, looked up, variant S241I F265L F377C)
UDP-glycosyltransferase 76G1: B1 UDP-glycosyltransferase 76G1 with L22F, V43I, V239A, S241I, F265L, F377C
B16: UGT76G1var23: UGT76G1 variant, mutations T263S_G348P_A352G (protein, UniProt Q6VAB4 1-458, looked up, variant T263S G348P A352G)
UDP-glycosyltransferase 76G1: B1 UDP-glycosyltransferase 76G1 with L22F, V43I, V239A, T263S, G348P, A352G
B17: UGT76G1var19: UGT76G1 variant, mutations E224D_E229A_Q432E (protein, UniProt Q6VAB4 1-458, looked up, variant E224D E229A Q432E)
UDP-glycosyltransferase 76G1: B1 UDP-glycosyltransferase 76G1 with L22F, V43I, E224D, E229A, V239A, Q432E
B18: UGT76G1var11: UGT76G1 variant, mutations F22L_A33G_V310I (protein, UniProt Q6VAB4 1-458, looked up, variant F22L A33G V310I)
UDP-glycosyltransferase 76G1: B1 UDP-glycosyltransferase 76G1 with A33G, V43I, V239A, V310I
B19: UGT76G1var36: UGT76G1 variant, mutations F265L_L379A_V396F (protein, UniProt Q6VAB4 1-458, looked up, variant F265L L379A V396F)
UDP-glycosyltransferase 76G1: B1 UDP-glycosyltransferase 76G1 with L22F, V43I, V239A, F265L, L379A, V396F
B20: UGT76G1var10: UGT76G1 variant, mutations A33G_L246F_Q342E (protein, UniProt Q6VAB4 1-458, looked up, variant A33G L246F Q342E)
UDP-glycosyltransferase 76G1: B1 UDP-glycosyltransferase 76G1 with L22F, A33G, V43I, V239A, L246F, Q342E
B21: UGT76G1var12: UGT76G1 variant, mutations L243P_K303G_A352G (protein, UniProt Q6VAB4 1-458, looked up, variant L243P K303G A352G)
UDP-glycosyltransferase 76G1: B1 UDP-glycosyltransferase 76G1 with L22F, V43I, V239A, L243P, K303G, A352G
B22: UGT76G1var25: UGT76G1 variant, mutations T284L_Q342K_Y397Q (protein, UniProt Q6VAB4 1-458, looked up, variant T284L Q342K Y397Q)
UDP-glycosyltransferase 76G1: B1 UDP-glycosyltransferase 76G1 with L22F, V43I, V239A, T284L, Q342K, Y397Q
B23: UGT76G1var13: UGT76G1 variant, mutations L243A_S357C_A385T (protein, UniProt Q6VAB4 1-458, looked up, variant L243A S357C A385T)
UDP-glycosyltransferase 76G1: B1 UDP-glycosyltransferase 76G1 with L22F, V43I, V239A, L243A, S357C, A385T
B24: UGT76G1var14: UGT76G1 variant, mutations A239I_F265I_V396F (protein, UniProt Q6VAB4 1-458, looked up, variant A239I F265I V396F)
UDP-glycosyltransferase 76G1: B1 UDP-glycosyltransferase 76G1 with L22F, V43I, V239I, F265I, V396F
B25: UGT76G1var30: UGT76G1 variant, mutations I43V_E224A_S241I (protein, UniProt Q6VAB4 1-458, looked up, variant I43V E224A S241I)
UDP-glycosyltransferase 76G1: B1 UDP-glycosyltransferase 76G1 with L22F, E224A, V239A, S241I
B26: UGT76G1var16: UGT76G1 variant, mutations F265I_P272A_I335V (protein, UniProt Q6VAB4 1-458, looked up, variant F265I P272A I335V)
UDP-glycosyltransferase 76G1: B1 UDP-glycosyltransferase 76G1 with L22F, V43I, V239A, F265I, P272A, I335V
B27: UGT76G1var9: UGT76G1 variant, mutations E231A_D301N_G348P (protein, UniProt Q6VAB4 1-458, looked up, variant E231A D301N G348P)
UDP-glycosyltransferase 76G1: B1 UDP-glycosyltransferase 76G1 with L22F, V43I, E231A, V239A, D301N, G348P
B28: UGT76G1var33: UGT76G1 variant, mutations A33G_R334H_Y397Q (protein, UniProt Q6VAB4 1-458, looked up, variant A33G R334H Y397Q)
UDP-glycosyltransferase 76G1: B1 UDP-glycosyltransferase 76G1 with L22F, A33G, V43I, V239A, R334H, Y397Q
B29: UGT76G1var27: UGT76G1 variant, mutations A239I_L379A_V394I (protein, UniProt Q6VAB4 1-458, looked up, variant A239I L379A V394I)
UDP-glycosyltransferase 76G1: B1 UDP-glycosyltransferase 76G1 with L22F, V43I, V239I, L379A, V394I
B30: UGT76G1var35: UGT76G1 variant, mutations T284L_F314S_S357N (protein, UniProt Q6VAB4 1-458, looked up, variant T284L F314S S357N)
UDP-glycosyltransferase 76G1: B1 UDP-glycosyltransferase 76G1 with L22F, V43I, V239A, T284L, F314S, S357N

Assay: Directed evolution of UGT76G1, Rebaudioside D to Rebaudioside M, round 1 (Example 26)
Type: biochemical
Details: 100 μL fresh lysate, 0.5 mM Rebaudioside D, 30° C., pH 7.2
Method: Lysis was performed by addition of Bugbuster® Master mix (Novagen®) to the thawed cells and the lysate was recovered by centrifugation. Activity tests were performed with 100 μL of fresh lysate that was added to a solution of Rebaudioside D (final concentration 0.5 mM), MgCl2 (final concentration 3 mM) and UDP-Glucose (final concentration 2.5 mM) in 50 mM phosphate buffer pH 7.2.
The reaction was allowed to run at 30° C. and samples were taken after 2, 4, 7 and 24 h. to determine conversion and initial rate by HPLC (CAD detection) using the analytical method that was described above for the transformation of Rebaudioside D to Rebaudioside M. The results are depicted in the following table.

Row | Molecule | conversion Reb D to Reb M after 24 h [%] | initial rate [Reb M area/min]
1 | B1 | 0.2 | −6.0E+04
2 | B2 | 41.0 | 2.9E+07
3 | B3 |  | 3.3E+07
4 | B4 | 6.1 | 2.4E+06
5 | B5 | 1.9 | 5.0E+05
6 | B6 |  | 2.4E+07
7 | B7 | 0.5 | 2.3E+04
8 | B8 | 0.0 | −4.4E+04
9 | B9 | 0.4 | 2.4E+05
10 | B10 | 1.8 | 1.9E+06
11 | B11 | 0.7 | 7.2E+05
12 | B12 | 5.6 | 1.5E+06
13 | B13 | 31.0 | 2.1E+07
14 | B14 | 3.4 | 1.5E+06
15 | B15 | 1.8 | 7.5E+05
16 | B16 |  | 4.1E+07
17 | B17 |  | 5.5E+06
18 | B18 | 0.4 | 3.8E+04
19 | B19 | 20.0 | 8.8E+06
20 | B20 | 0.3 | −7.7E+02
21 | B21 | 0.5 | 8.7E+04
22 | B22 | 0.9 | 6.3E+04
23 | B23 | 0.2 | −3.3E+04
24 | B24 | 5.3 | 1.5E+06
25 | B25 |  | 5.6E+06
26 | B26 |  | 5.8E+06
27 | B27 | 52.0 | 4.9E+07
28 | B28 | 1.0 | 7.5E+06
29 | B29 | 29.0 | 1.5E+07
30 | B30 | 0.5 | 1.8E+05
